Assay results taken from US20210061908A1 (IOMX THERAPEUTICS, published 2021).

T1: extracellular domain (ECD) of human IGSF11 (VSIG3), biotinylated (human, UniProt Q5DX21 23-241, biotinylated (site not stated))
T1 construct: also called human IGSF11 protein
T1 sequence: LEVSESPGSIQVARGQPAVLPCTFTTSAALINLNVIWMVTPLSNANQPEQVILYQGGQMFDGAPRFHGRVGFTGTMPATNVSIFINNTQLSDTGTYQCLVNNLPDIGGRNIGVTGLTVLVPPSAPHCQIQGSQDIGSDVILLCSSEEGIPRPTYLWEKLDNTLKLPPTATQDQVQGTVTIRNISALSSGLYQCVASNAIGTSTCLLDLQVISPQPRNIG

T2: extracellular domain (ECD) of murine IGSF11, biotinylated (mouse, UniProt P0C673 23-240, biotinylated (site not stated))
T2 construct: also called Mouse IGSF11; murine IGSF11 protein
T2 sequence: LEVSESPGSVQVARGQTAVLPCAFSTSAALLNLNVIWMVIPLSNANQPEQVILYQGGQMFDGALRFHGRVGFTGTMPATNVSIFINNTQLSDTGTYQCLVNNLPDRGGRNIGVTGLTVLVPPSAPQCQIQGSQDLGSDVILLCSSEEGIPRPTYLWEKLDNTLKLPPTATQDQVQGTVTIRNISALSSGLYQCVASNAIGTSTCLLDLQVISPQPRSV


Experiments:
[1] = target: T1, extracellular domain (ECD) of human …; assay: ELISA, scFv; RFU grade (*** >1.0, ** 0.5-1.0, * 0.1-0.5)
[2] = target: T2, extracellular domain (ECD) of murine …; assay: as above

relative fluorescent units (RFU), ELISA [1] [rfu] | relative fluorescent units (RFU), ELISA [2] [rfu] | Binder
0.1 to 0.5 | 0.1 to 0.5 | A-032 (scFv format) (scFv, V domains shown) VH: QVQLVQSGAEVKKPGASVKVSCKASGYTFTGYYMHWVRQAPGQGLEWMGWMNPNSGNTGYAQKFQGRVTMTRNTSISTAYMELSSLRSEDTAVYYCARGGQQQLVLDDYWGQGTLVTVSS VL: not shown
0.1 to 0.5 | 0.1 to 0.5 | A-030 (scFv format) (scFv, V domains shown, scFv) VH: QVQLVQSGAEVKKPGASVKVSCKASGYTFTGYYMHWVRQAPGQGLEWMGWINPNSGNTGYAQKFQGRVTMTRNTSISTAYMELSSLRSEDTAVYYCARGGQQQLVLDDYWGQGTLVTVSS VL: DIQLTQSPSTLSASVGDRVTITCRASQSIGGWLAWYQHKPGKAPKLLIYAASSLQSGVPSRFSGSGSGTDFTLTISSLQPEDFATYYCRQSYSTPPTFGQGTKVEIK
0.1 to 0.5 | 0.1 to 0.5 | A-036 (scFv format) (scFv, V domains shown, scFv) VH: QVQLVQSGAEVKKPGASVKVSCKASGYTFTGYYMHWVRQAPGQGLEWMGWINPNSGGTNYAQKFQGRVTMTRNTSISTAYMELSSLRSEDTAVYYCARGGQQQLVLDDYWGQGTLVTVSS VL: not shown
0.1 to 0.5 | 0.1 to 0.5 | A-033 (scFv format) (scFv, V domains shown, scFv) VH: QVQLVQSGAEVKKPGASVKVSCKASGYTFTSYGISWVRQAPGQGLEWMGWISAYNGNTNYAQKLQGRVTMTTDTSTSTAYMELRSLRSDDTAVYYCARDHSIVGATTFDYWGQGTLVTVSS VL: not shown
0.5 to 1 | > 1 | A-004 (scFv format) (scFv, V domains shown, scFv) VH: EVQLVESGGGLVKPGGSLRLSCAASGFTFSSYSMNWVRQAPGKGLEWVSSISSSSSYIYYADSVKGRFTISRDNAKNSLYLQMNSLRAEDTAVYYCARGQLLWFGESALIDAFDIWGQGTMVTVSS VL: EIVLTQSPSSLSASVGDRVTITCRASQSISSYLNWYQLKPGKAPKLLIYAASILQSGVPSRFSGSGSGTDFTLTISSLQPEDFAAYYCQQSYSTPRTFGQGTKLEIK
> 1 | 0.5 to 1 | A-034 (scFv format) (scFv, V domains shown, scFv) VH: QMQLVQSGGGLVKPGGSLRLSCAASGFTFSSYTMNWVRQAPGKGLEWVSSISSIGTYIYYADSVKGRFTISRDNAKNSLYLQMNSLRAEDTAVYYCARVLLSGSYYGYFDSWGQGTLVTVSS VL: QSVLTQPPSVSGAPGQRVTISCTGSSSNIGAGYDVHWYQQLPGTAPKLFIYGNSNRPSGVPDRFSGSKSGTSASLAITGLQAEDEADYYCQSYDSSLSGYVFGTGTKVTVL
0.1 to 0.5 | 0.1 to 0.5 | A-031 (scFv format) (scFv, V domains shown, scFv) VH: not shown VL: EIVLTQSPGTVSLSPGERATLSCRASQSVPKNYLAWFQQKPGQAPRLVIHTASSRAPGIPDRFTGSGSGTDFTLTISRLEPEDFAVYYCQQYGTSPNTFGQGTKLDIK
0.5 to 1 | > 1 | A-035 (scFv format) (scFv, V domains shown, scFv) VH: QVQLVQSGAEVKKPGASVKVSCKASGYTFTGYYMHWVRQAPGQGLEWMGWINPNSGNTGYAQKFQGRVTMTRNTSISTAYMELSSLRSEDTAVYYCARGRLERGYWYFDLWGRGTLVTVSS VL: NFMLTQPHSVSESPGRTVTISCTRSSGSITSNYVQWYQQRPGSAPTILIYEDKERPSEVPDRFSGSIDISSNSASLTISGLKTEDEADYYCQSYGGTSQGVLFGGGTKVTVL
> 1 | > 1 | A-001 (scFv format) (scFv, V domains shown, scFv) VH: EVQLVESGGGLVKPGGSLRLSCAASGFTFSSYSMNWVRQAPGKGLEWVSSISSSSSYIYYADSVKGRFTISRDNAKNSLYLQMNSLRAEDTAVYYCVRSIIVQALGITSVFDIWGQGTMVTVSS VL: AIRLTQSPSSLSASVGDRVTISCRASQIISNHLNWYQQKPGKAPKLLIYAASRLQTGVPSRFSGSGSETDYTLTISSLQPEDFATYYCQQSYSNPRTFGHGTKVEIK
